Data taken from the supplement of paper PMC10266784.

B1: library; numbered along this chain (parent)
chain: MAAAAAAAAEQQSSNGPVKKSMREKAVERRSVNKEHNSNFKAGYIPIDEDRLHKTGLRGRKGNLAICVIILLFILAVINLIITLVIWAVIRIGPNGCDSMEFHESGLLRFKQVSDMGVIHPLYKSTVGGRRNENLVITGNNQPIVFQQGTTKLSVENNKTSITSDIGMQFFDPRTQNILFSTDYETHEFHLPSGVKSLNVQKASTERITSNATSDLNIKVDGRAIVRGNEGVFIMGKTIEFHMGGNMELKAENSIILNGSVMVSTTRLPSSSSGDQLGSGDWVRYKLCMCADGTLFKVQVTSQNMGCQISDNPCGNTH

Variants of: B1
Test: SGCB cell-surface expression functional score (HA stain, bin4 vs bin1, normalised to synonymous) (log10 ratio); higher = more cell-surface SGCB (functional)
Protocol: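 Deep mutational scan of full-length human SGCB (YFP-SGCB-HA, NNN codon sublibraries A-F) delivered by lentivirus at low MOI into ADG-HEK293 cells stably expressing SGCA, SGCD and SGCG. YFP-positive cells were stained for surface HA on unpermeabilized cells and FACS-sorted into bins. The functional score is log10(frequency in high bin 4 / frequency in low bin 1), normalised per chunk so that synonymous variants have mean 0 and SD 0.5. Scores are the median over codons and over duplicate biological replicates; scores below -0.5 are called non-functional. Scale: negative means deleterious.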

Point of comparison: MAAAAAAAAELQSSNGPVKKSMREKAVERRSVNKEHNSNFKAGYIPIDEDRLHKTGLRGRKGNLAICVIILLFILAVINLIITLVIWAVIRIGPNGCDSMEFHESGLLRFKQVSDMGVIHPLYKSTVGGRRNENLVITGNNQPIVFQQGTTKLSVENNKTSITSDIGMQFFDPRTQNILFSTDYETHEFHLPSGVKSLNVQKASTERITSNATSDLNIKVDGRAIVRGNEGVFIMGKTIEFHMGGNMELKAENSIILNGSVMVSTTRLPSSSSGDQLGSGDWVRYKLCMCADGTLFKVQVTSQNMGCQISDNPCGNTH [Q11L], “SGCB cell-surface expression functional score (log10)” value 0.04. Against it:
- MAAAAAAAAEQASSNGPVKKSMREKAVERRSVNKEHNSNFKAGYIPIDEDRLHKTGLRGRKGNLAICVIILLFILAVINLIITLVIWAVIRIGPNGCDSMEFHESGLLRFKQVSDMGVIHPLYKSTVGGRRNENLVITGNNQPIVFQQGTTKLSVENNKTSITSDIGMQFFDPRTQNILFSTDYETHEFHLPSGVKSLNVQKASTERITSNATSDLNIKVDGRAIVRGNEGVFIMGKTIEFHMGGNMELKAENSIILNGSVMVSTTRLPSSSSGDQLGSGDWVRYKLCMCADGTLFKVQVTSQNMGCQISDNPCGNTH [Q12A] — higher, 0.29
- MAAAAAAAAEQCSSNGPVKKSMREKAVERRSVNKEHNSNFKAGYIPIDEDRLHKTGLRGRKGNLAICVIILLFILAVINLIITLVIWAVIRIGPNGCDSMEFHESGLLRFKQVSDMGVIHPLYKSTVGGRRNENLVITGNNQPIVFQQGTTKLSVENNKTSITSDIGMQFFDPRTQNILFSTDYETHEFHLPSGVKSLNVQKASTERITSNATSDLNIKVDGRAIVRGNEGVFIMGKTIEFHMGGNMELKAENSIILNGSVMVSTTRLPSSSSGDQLGSGDWVRYKLCMCADGTLFKVQVTSQNMGCQISDNPCGNTH [Q12C] — lower, -0.19
- MAAAAAAAAEQDSSNGPVKKSMREKAVERRSVNKEHNSNFKAGYIPIDEDRLHKTGLRGRKGNLAICVIILLFILAVINLIITLVIWAVIRIGPNGCDSMEFHESGLLRFKQVSDMGVIHPLYKSTVGGRRNENLVITGNNQPIVFQQGTTKLSVENNKTSITSDIGMQFFDPRTQNILFSTDYETHEFHLPSGVKSLNVQKASTERITSNATSDLNIKVDGRAIVRGNEGVFIMGKTIEFHMGGNMELKAENSIILNGSVMVSTTRLPSSSSGDQLGSGDWVRYKLCMCADGTLFKVQVTSQNMGCQISDNPCGNTH [Q12D] — lower, -0.24
- MAAAAAAAAEQGSSNGPVKKSMREKAVERRSVNKEHNSNFKAGYIPIDEDRLHKTGLRGRKGNLAICVIILLFILAVINLIITLVIWAVIRIGPNGCDSMEFHESGLLRFKQVSDMGVIHPLYKSTVGGRRNENLVITGNNQPIVFQQGTTKLSVENNKTSITSDIGMQFFDPRTQNILFSTDYETHEFHLPSGVKSLNVQKASTERITSNATSDLNIKVDGRAIVRGNEGVFIMGKTIEFHMGGNMELKAENSIILNGSVMVSTTRLPSSSSGDQLGSGDWVRYKLCMCADGTLFKVQVTSQNMGCQISDNPCGNTH [Q12G] — within 0.2 log units, 0.12
- MAAAAAAAAEQFSSNGPVKKSMREKAVERRSVNKEHNSNFKAGYIPIDEDRLHKTGLRGRKGNLAICVIILLFILAVINLIITLVIWAVIRIGPNGCDSMEFHESGLLRFKQVSDMGVIHPLYKSTVGGRRNENLVITGNNQPIVFQQGTTKLSVENNKTSITSDIGMQFFDPRTQNILFSTDYETHEFHLPSGVKSLNVQKASTERITSNATSDLNIKVDGRAIVRGNEGVFIMGKTIEFHMGGNMELKAENSIILNGSVMVSTTRLPSSSSGDQLGSGDWVRYKLCMCADGTLFKVQVTSQNMGCQISDNPCGNTH [Q12F] — lower, -0.27
- MAAAAAAAAEQESSNGPVKKSMREKAVERRSVNKEHNSNFKAGYIPIDEDRLHKTGLRGRKGNLAICVIILLFILAVINLIITLVIWAVIRIGPNGCDSMEFHESGLLRFKQVSDMGVIHPLYKSTVGGRRNENLVITGNNQPIVFQQGTTKLSVENNKTSITSDIGMQFFDPRTQNILFSTDYETHEFHLPSGVKSLNVQKASTERITSNATSDLNIKVDGRAIVRGNEGVFIMGKTIEFHMGGNMELKAENSIILNGSVMVSTTRLPSSSSGDQLGSGDWVRYKLCMCADGTLFKVQVTSQNMGCQISDNPCGNTH [Q12E] — within 0.2 log units, 0
- MAAAAAAAAEWQSSNGPVKKSMREKAVERRSVNKEHNSNFKAGYIPIDEDRLHKTGLRGRKGNLAICVIILLFILAVINLIITLVIWAVIRIGPNGCDSMEFHESGLLRFKQVSDMGVIHPLYKSTVGGRRNENLVITGNNQPIVFQQGTTKLSVENNKTSITSDIGMQFFDPRTQNILFSTDYETHEFHLPSGVKSLNVQKASTERITSNATSDLNIKVDGRAIVRGNEGVFIMGKTIEFHMGGNMELKAENSIILNGSVMVSTTRLPSSSSGDQLGSGDWVRYKLCMCADGTLFKVQVTSQNMGCQISDNPCGNTH [Q11W] — higher, 0.61
- MAAAAAAAAETQSSNGPVKKSMREKAVERRSVNKEHNSNFKAGYIPIDEDRLHKTGLRGRKGNLAICVIILLFILAVINLIITLVIWAVIRIGPNGCDSMEFHESGLLRFKQVSDMGVIHPLYKSTVGGRRNENLVITGNNQPIVFQQGTTKLSVENNKTSITSDIGMQFFDPRTQNILFSTDYETHEFHLPSGVKSLNVQKASTERITSNATSDLNIKVDGRAIVRGNEGVFIMGKTIEFHMGGNMELKAENSIILNGSVMVSTTRLPSSSSGDQLGSGDWVRYKLCMCADGTLFKVQVTSQNMGCQISDNPCGNTH [Q11T] — within 0.2 log units, -0.02
- MAAAAAAAAERQSSNGPVKKSMREKAVERRSVNKEHNSNFKAGYIPIDEDRLHKTGLRGRKGNLAICVIILLFILAVINLIITLVIWAVIRIGPNGCDSMEFHESGLLRFKQVSDMGVIHPLYKSTVGGRRNENLVITGNNQPIVFQQGTTKLSVENNKTSITSDIGMQFFDPRTQNILFSTDYETHEFHLPSGVKSLNVQKASTERITSNATSDLNIKVDGRAIVRGNEGVFIMGKTIEFHMGGNMELKAENSIILNGSVMVSTTRLPSSSSGDQLGSGDWVRYKLCMCADGTLFKVQVTSQNMGCQISDNPCGNTH [Q11R] — within 0.2 log units, 0.14
- MAAAAAAAAEHQSSNGPVKKSMREKAVERRSVNKEHNSNFKAGYIPIDEDRLHKTGLRGRKGNLAICVIILLFILAVINLIITLVIWAVIRIGPNGCDSMEFHESGLLRFKQVSDMGVIHPLYKSTVGGRRNENLVITGNNQPIVFQQGTTKLSVENNKTSITSDIGMQFFDPRTQNILFSTDYETHEFHLPSGVKSLNVQKASTERITSNATSDLNIKVDGRAIVRGNEGVFIMGKTIEFHMGGNMELKAENSIILNGSVMVSTTRLPSSSSGDQLGSGDWVRYKLCMCADGTLFKVQVTSQNMGCQISDNPCGNTH [Q11H] — within 0.2 log units, 0.19
- MAAAAAAAAENQSSNGPVKKSMREKAVERRSVNKEHNSNFKAGYIPIDEDRLHKTGLRGRKGNLAICVIILLFILAVINLIITLVIWAVIRIGPNGCDSMEFHESGLLRFKQVSDMGVIHPLYKSTVGGRRNENLVITGNNQPIVFQQGTTKLSVENNKTSITSDIGMQFFDPRTQNILFSTDYETHEFHLPSGVKSLNVQKASTERITSNATSDLNIKVDGRAIVRGNEGVFIMGKTIEFHMGGNMELKAENSIILNGSVMVSTTRLPSSSSGDQLGSGDWVRYKLCMCADGTLFKVQVTSQNMGCQISDNPCGNTH [Q11N] — higher, 0.3
- MAAAAAAAAEYQSSNGPVKKSMREKAVERRSVNKEHNSNFKAGYIPIDEDRLHKTGLRGRKGNLAICVIILLFILAVINLIITLVIWAVIRIGPNGCDSMEFHESGLLRFKQVSDMGVIHPLYKSTVGGRRNENLVITGNNQPIVFQQGTTKLSVENNKTSITSDIGMQFFDPRTQNILFSTDYETHEFHLPSGVKSLNVQKASTERITSNATSDLNIKVDGRAIVRGNEGVFIMGKTIEFHMGGNMELKAENSIILNGSVMVSTTRLPSSSSGDQLGSGDWVRYKLCMCADGTLFKVQVTSQNMGCQISDNPCGNTH [Q11Y] — within 0.2 log units, 0.17
- MAAAAAAAAEKQSSNGPVKKSMREKAVERRSVNKEHNSNFKAGYIPIDEDRLHKTGLRGRKGNLAICVIILLFILAVINLIITLVIWAVIRIGPNGCDSMEFHESGLLRFKQVSDMGVIHPLYKSTVGGRRNENLVITGNNQPIVFQQGTTKLSVENNKTSITSDIGMQFFDPRTQNILFSTDYETHEFHLPSGVKSLNVQKASTERITSNATSDLNIKVDGRAIVRGNEGVFIMGKTIEFHMGGNMELKAENSIILNGSVMVSTTRLPSSSSGDQLGSGDWVRYKLCMCADGTLFKVQVTSQNMGCQISDNPCGNTH [Q11K] — within 0.2 log units, -0.03
- MAAAAAAAAEIQSSNGPVKKSMREKAVERRSVNKEHNSNFKAGYIPIDEDRLHKTGLRGRKGNLAICVIILLFILAVINLIITLVIWAVIRIGPNGCDSMEFHESGLLRFKQVSDMGVIHPLYKSTVGGRRNENLVITGNNQPIVFQQGTTKLSVENNKTSITSDIGMQFFDPRTQNILFSTDYETHEFHLPSGVKSLNVQKASTERITSNATSDLNIKVDGRAIVRGNEGVFIMGKTIEFHMGGNMELKAENSIILNGSVMVSTTRLPSSSSGDQLGSGDWVRYKLCMCADGTLFKVQVTSQNMGCQISDNPCGNTH [Q11I] — lower, -0.5
- MAAAAAAAAESQSSNGPVKKSMREKAVERRSVNKEHNSNFKAGYIPIDEDRLHKTGLRGRKGNLAICVIILLFILAVINLIITLVIWAVIRIGPNGCDSMEFHESGLLRFKQVSDMGVIHPLYKSTVGGRRNENLVITGNNQPIVFQQGTTKLSVENNKTSITSDIGMQFFDPRTQNILFSTDYETHEFHLPSGVKSLNVQKASTERITSNATSDLNIKVDGRAIVRGNEGVFIMGKTIEFHMGGNMELKAENSIILNGSVMVSTTRLPSSSSGDQLGSGDWVRYKLCMCADGTLFKVQVTSQNMGCQISDNPCGNTH [Q11S] — higher, 0.39
- MAAAAAAAAEPQSSNGPVKKSMREKAVERRSVNKEHNSNFKAGYIPIDEDRLHKTGLRGRKGNLAICVIILLFILAVINLIITLVIWAVIRIGPNGCDSMEFHESGLLRFKQVSDMGVIHPLYKSTVGGRRNENLVITGNNQPIVFQQGTTKLSVENNKTSITSDIGMQFFDPRTQNILFSTDYETHEFHLPSGVKSLNVQKASTERITSNATSDLNIKVDGRAIVRGNEGVFIMGKTIEFHMGGNMELKAENSIILNGSVMVSTTRLPSSSSGDQLGSGDWVRYKLCMCADGTLFKVQVTSQNMGCQISDNPCGNTH [Q11P] — higher, 0.41
- MAAAAAAAAEVQSSNGPVKKSMREKAVERRSVNKEHNSNFKAGYIPIDEDRLHKTGLRGRKGNLAICVIILLFILAVINLIITLVIWAVIRIGPNGCDSMEFHESGLLRFKQVSDMGVIHPLYKSTVGGRRNENLVITGNNQPIVFQQGTTKLSVENNKTSITSDIGMQFFDPRTQNILFSTDYETHEFHLPSGVKSLNVQKASTERITSNATSDLNIKVDGRAIVRGNEGVFIMGKTIEFHMGGNMELKAENSIILNGSVMVSTTRLPSSSSGDQLGSGDWVRYKLCMCADGTLFKVQVTSQNMGCQISDNPCGNTH [Q11V] — within 0.2 log units, -0.03
- MAAAAAAAAEMQSSNGPVKKSMREKAVERRSVNKEHNSNFKAGYIPIDEDRLHKTGLRGRKGNLAICVIILLFILAVINLIITLVIWAVIRIGPNGCDSMEFHESGLLRFKQVSDMGVIHPLYKSTVGGRRNENLVITGNNQPIVFQQGTTKLSVENNKTSITSDIGMQFFDPRTQNILFSTDYETHEFHLPSGVKSLNVQKASTERITSNATSDLNIKVDGRAIVRGNEGVFIMGKTIEFHMGGNMELKAENSIILNGSVMVSTTRLPSSSSGDQLGSGDWVRYKLCMCADGTLFKVQVTSQNMGCQISDNPCGNTH [Q11M] — within 0.2 log units, -0.03
